# Results as given in PMC5006282.
# Assays:
# Assay in all cases: pull-down MS
# Conditions in all cases: 5' biotin on sense strand; DNA immobilised on streptavidin beads in 20 mM Tris-HCl pH 8.0, 200 mM NaCl, 0.5 mM EDTA, 0.03% NP40; protein binding buffer and temperature not in the …
# [1] = target: Ikaros (Homo sapiens (Raji, Molt4 nuclear extract)) (UniProt Q13422)
# [2] = target: HCF-1 (Homo sapiens (Raji, Molt4)) (UniProt P51610)
# [3] = target: Helios (Homo sapiens (Raji)) (UniProt Q9UKS7)
# [4] = target: Aiolos (Homo sapiens (Raji)) (UniProt Q9UKT9)
# [5] = target: NFKB2 (NF-kappa B p100/p52) (Homo sapiens (Raji)) (UniProt Q00653)
# Chain of UniProt Q00653 (Q00653 whole entry): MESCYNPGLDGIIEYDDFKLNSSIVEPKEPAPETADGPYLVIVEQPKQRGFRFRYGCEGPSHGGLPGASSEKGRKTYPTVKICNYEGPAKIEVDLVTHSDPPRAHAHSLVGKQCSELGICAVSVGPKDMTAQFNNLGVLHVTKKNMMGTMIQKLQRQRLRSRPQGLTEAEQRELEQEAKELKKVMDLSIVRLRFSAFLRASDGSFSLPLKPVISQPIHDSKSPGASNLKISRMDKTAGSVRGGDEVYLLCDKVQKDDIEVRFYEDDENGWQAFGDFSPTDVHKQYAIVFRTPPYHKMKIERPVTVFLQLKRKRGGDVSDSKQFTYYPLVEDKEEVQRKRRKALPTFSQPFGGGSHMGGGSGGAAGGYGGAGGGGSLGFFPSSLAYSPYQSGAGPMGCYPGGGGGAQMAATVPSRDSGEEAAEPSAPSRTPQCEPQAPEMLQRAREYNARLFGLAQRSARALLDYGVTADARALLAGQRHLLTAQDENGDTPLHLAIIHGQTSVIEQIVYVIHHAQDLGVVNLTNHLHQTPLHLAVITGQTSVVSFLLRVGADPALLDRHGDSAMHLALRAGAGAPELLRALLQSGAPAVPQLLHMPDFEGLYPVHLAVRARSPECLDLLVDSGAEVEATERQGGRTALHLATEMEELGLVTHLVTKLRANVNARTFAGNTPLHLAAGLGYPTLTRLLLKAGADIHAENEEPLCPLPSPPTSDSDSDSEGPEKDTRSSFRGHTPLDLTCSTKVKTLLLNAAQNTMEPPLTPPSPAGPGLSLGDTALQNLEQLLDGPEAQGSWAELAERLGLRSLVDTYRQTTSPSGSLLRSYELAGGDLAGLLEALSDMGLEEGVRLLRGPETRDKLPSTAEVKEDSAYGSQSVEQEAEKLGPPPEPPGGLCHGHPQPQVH
# Chain of UniProt Q9UKT9 (Q9UKT9 whole entry): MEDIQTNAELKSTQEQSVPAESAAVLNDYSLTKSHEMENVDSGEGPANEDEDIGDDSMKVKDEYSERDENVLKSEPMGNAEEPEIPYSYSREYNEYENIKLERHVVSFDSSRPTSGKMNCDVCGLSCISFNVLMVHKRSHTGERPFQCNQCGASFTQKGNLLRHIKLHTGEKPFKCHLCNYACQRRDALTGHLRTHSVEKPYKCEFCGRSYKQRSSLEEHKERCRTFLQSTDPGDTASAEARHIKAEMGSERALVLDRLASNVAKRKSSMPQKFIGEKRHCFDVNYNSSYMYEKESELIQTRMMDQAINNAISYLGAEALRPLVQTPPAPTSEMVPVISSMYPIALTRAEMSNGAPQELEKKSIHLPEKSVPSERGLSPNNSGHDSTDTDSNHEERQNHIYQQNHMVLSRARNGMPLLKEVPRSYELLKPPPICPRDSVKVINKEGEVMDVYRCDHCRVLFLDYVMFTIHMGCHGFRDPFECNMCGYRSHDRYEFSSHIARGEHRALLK
# Chain of UniProt Q9UKS7 (Q9UKS7 whole entry): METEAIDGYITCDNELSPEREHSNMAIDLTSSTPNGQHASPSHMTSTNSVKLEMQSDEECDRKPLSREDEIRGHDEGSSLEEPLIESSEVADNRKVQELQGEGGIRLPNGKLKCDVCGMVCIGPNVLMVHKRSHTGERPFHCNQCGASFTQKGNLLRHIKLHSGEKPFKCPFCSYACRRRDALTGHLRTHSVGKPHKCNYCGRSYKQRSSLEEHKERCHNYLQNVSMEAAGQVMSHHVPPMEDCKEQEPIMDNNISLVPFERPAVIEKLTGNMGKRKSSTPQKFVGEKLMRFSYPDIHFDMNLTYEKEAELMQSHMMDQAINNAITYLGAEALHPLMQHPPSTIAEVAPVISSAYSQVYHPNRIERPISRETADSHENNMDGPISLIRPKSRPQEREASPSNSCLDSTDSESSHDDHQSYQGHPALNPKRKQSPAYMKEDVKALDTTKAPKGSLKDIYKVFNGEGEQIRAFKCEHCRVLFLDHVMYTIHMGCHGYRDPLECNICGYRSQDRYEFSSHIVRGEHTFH
# Chain of UniProt Q13422 (Q13422 whole entry): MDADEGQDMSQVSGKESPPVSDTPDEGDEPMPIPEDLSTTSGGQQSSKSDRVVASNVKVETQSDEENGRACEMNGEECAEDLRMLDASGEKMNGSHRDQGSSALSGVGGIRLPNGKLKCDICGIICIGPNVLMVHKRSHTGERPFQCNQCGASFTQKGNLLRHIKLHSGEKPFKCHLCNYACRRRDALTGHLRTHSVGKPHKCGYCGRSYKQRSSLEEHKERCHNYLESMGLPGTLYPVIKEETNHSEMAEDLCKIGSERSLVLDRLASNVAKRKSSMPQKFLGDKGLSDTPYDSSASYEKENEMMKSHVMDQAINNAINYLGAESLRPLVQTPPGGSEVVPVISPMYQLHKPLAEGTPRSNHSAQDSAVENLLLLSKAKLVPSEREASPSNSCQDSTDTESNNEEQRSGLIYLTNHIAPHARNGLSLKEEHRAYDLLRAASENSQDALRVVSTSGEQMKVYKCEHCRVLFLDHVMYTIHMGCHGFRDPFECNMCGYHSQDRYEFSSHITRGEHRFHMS
# Chain of UniProt P51610 (P51610 whole entry): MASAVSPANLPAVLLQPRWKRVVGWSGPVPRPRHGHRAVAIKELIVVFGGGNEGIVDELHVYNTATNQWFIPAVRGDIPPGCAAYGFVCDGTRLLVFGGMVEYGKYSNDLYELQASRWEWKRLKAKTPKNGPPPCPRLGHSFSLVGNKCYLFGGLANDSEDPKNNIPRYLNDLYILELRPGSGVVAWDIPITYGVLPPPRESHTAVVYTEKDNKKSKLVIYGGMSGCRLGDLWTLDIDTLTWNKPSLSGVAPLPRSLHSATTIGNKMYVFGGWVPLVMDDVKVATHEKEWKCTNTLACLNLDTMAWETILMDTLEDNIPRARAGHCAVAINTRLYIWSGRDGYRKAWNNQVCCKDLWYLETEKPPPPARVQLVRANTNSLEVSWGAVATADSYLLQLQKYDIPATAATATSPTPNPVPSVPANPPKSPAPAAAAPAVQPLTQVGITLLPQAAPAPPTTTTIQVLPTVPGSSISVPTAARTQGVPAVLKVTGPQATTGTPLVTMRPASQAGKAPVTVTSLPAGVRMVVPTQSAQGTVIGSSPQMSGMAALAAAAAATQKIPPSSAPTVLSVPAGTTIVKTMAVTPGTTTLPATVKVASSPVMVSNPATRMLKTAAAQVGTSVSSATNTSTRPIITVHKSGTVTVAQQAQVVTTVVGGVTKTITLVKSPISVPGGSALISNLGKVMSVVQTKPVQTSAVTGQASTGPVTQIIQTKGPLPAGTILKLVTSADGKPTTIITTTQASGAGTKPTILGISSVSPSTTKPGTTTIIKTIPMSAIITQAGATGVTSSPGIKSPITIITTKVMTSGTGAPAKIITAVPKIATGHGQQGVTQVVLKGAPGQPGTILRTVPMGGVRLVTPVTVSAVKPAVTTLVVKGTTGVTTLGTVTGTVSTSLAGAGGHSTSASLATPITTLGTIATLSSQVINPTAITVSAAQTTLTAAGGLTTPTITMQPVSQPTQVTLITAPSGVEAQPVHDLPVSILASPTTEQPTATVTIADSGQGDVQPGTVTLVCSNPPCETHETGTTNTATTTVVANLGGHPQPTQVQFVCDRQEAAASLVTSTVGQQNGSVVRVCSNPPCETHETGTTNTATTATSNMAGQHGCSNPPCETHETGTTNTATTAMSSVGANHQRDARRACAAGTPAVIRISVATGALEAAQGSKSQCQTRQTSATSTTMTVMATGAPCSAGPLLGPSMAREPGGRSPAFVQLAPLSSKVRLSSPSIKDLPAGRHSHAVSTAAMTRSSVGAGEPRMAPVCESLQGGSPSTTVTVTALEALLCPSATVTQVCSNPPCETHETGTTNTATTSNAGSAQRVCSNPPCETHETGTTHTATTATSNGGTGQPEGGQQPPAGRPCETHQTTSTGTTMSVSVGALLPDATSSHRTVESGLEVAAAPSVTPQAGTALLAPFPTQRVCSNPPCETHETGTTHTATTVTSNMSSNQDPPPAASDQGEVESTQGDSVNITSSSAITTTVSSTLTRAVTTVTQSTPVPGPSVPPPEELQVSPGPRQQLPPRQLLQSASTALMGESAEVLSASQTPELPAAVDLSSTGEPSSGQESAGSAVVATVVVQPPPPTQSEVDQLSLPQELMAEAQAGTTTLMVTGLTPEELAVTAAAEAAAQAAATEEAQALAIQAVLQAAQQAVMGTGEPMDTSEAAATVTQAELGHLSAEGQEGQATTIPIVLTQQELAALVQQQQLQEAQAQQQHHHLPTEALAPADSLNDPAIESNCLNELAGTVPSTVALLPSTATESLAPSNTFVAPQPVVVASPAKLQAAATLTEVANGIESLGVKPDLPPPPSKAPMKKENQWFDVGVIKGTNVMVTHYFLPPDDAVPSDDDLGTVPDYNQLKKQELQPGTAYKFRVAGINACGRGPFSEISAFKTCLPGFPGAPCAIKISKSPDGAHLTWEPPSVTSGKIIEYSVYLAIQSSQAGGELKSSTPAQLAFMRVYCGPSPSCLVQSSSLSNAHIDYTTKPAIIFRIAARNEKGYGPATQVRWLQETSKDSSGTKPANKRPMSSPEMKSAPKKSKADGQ
sequence,measurement,setting,value
CAAAACTGCAGGCAACTAGAACTACATTTCCCGGCGTGATTTGCTGCGGAACGAACTACATCTCCCGGCAGGCTGCG (double strand) [Tandem M4 WT],binding signal (SILAC ratio WT/MT),[1],> 100
same,binding signal (SILAC ratio WT/MT),[2],19
same,binding signal (SILAC ratio WT/MT),[3],> 100
same,binding signal (SILAC ratio WT/MT),[4],> 100
same,binding signal (SILAC ratio WT/MT),[5],31.8
